B1: Macrophage scavenger receptor types I and II (Homo sapiens), P21757 (parent)
chain: MEQWDHFHNQQEDTDSCSESVKFDARSMTALLPPNPKNSPSLQEKLKSFKAALIALYLLVFAVLIPLIGIVAAQLLKWETKNCSVSSTNANDITQSLTGKGNDSEEEMRFQEVFMEHMSNMEKRIQHILDMEANLMDTEHFQNFSMTTDQRFNDILLQLSTLFSSVQGHGNAIDEISKSLISLNTTLLDLQLNIENLNGKIQENTFKQQEEISKLEERVYNVSAEIMAMKEEQVHLEQEIKGEVKVLNNITNDLRLKDWEHSQTLRNITLIQGPPGPPGEKGDRGPTGESGPRGFPGPIGPPGLKGDRGAIGFPGSRGLPGYAGRPGNSGPKGQKGEKGSGNTLTPFTKVRLVGGSGPHEGRVEILHSGQWGTICDDRWEVRVGQVVCRSLGYPGVQAVHKAAHFGQGTGPIWLNEVFCFGRESSIEECKIRQWGTRACSHSEDAGVTCTL
partner: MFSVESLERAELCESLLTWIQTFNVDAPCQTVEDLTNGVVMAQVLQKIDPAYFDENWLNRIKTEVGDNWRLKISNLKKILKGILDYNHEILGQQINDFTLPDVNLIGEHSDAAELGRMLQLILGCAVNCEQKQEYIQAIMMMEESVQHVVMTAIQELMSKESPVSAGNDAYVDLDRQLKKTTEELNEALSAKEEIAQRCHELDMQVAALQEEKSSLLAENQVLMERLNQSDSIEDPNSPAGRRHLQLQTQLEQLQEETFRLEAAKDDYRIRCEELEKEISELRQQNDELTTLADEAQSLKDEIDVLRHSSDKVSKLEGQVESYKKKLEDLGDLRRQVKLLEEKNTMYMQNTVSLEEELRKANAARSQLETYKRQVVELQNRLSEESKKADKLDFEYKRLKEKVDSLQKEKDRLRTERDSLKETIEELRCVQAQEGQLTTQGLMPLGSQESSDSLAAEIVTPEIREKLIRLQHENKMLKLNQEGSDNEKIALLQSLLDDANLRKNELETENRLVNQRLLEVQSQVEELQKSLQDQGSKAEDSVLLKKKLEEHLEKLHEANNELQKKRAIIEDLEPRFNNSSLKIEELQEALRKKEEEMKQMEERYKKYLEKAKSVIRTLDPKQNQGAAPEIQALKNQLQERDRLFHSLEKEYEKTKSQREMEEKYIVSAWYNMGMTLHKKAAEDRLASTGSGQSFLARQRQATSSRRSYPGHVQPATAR

Variants of: B1
Settings: with hook3_human HOOK3, Q86VS8

| Variant | effect of a mutation on the interaction |
| --- | --- |
| MEQWDHFHNQQAATASCSESVKFDARSMTALLPPNPKNSPSLQEKLKSFKAALIALYLLVFAVLIPLIGIVAAQLLKWETKNCSVSSTNANDITQSLTGKGNDSEEEMRFQEVFMEHMSNMEKRIQHILDMEANLMDTEHFQNFSMTTDQRFNDILLQLSTLFSSVQGHGNAIDEISKSLISLNTTLLDLQLNIENLNGKIQENTFKQQEEISKLEERVYNVSAEIMAMKEEQVHLEQEIKGEVKVLNNITNDLRLKDWEHSQTLRNITLIQGPPGPPGEKGDRGPTGESGPRGFPGPIGPPGLKGDRGAIGFPGSRGLPGYAGRPGNSGPKGQKGEKGSGNTLTPFTKVRLVGGSGPHEGRVEILHSGQWGTICDDRWEVRVGQVVCRSLGYPGVQAVHKAAHFGQGTGPIWLNEVFCFGRESSIEECKIRQWGTRACSHSEDAGVTCTL [E12A;D13A;D15A] | disrupting interaction |

Source: IntAct's records for PubMed 17237231
